Measurements as given in publication PMC4551902, “Aquaporins Mediate Silicon Transport in Humans” (PLoS ONE, 2015).

Experiments:
lsi1 = target: T1, lsi1 (Oryza sativa, UniProt Q6Z2T3); assay: 68Ge influx into oocytes, liquid scintillation counting; assay type: cell-based; conditions: 2 mM H4GeO4 with 68Ge tracer, B1 medium, pH 7.4, 90 min; labelled compound
T1 construct: gene NIP2-1; expressed in Xenopus laevis oocytes
T1 sequence (Q6Z2T3 1-298): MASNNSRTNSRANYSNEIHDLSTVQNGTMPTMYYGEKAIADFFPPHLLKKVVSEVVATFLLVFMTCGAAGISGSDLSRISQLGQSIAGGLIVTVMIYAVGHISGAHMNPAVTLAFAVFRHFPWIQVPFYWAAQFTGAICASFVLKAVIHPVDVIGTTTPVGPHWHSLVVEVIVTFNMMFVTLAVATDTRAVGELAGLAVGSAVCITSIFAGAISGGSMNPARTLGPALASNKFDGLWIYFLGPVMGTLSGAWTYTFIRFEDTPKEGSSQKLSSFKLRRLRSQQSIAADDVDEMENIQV

AQP9 = target: T2, AQP9 (Homo sapiens, UniProt O43315); assay: Si influx and osmotic water transport in oocytes; assay type: cell-based; conditions: 0.1 mM phloretin; Si influx: B2a hypoosmolar medium, 2 mM H4SiO4, 30 min; water transport: ~10 mM sucrose, 20 s
T2 construct: full-length human cDNA in Pol1 vector, untagged, expressed in Xenopus laevis oocytes
T2 sequence (O43315 1-295): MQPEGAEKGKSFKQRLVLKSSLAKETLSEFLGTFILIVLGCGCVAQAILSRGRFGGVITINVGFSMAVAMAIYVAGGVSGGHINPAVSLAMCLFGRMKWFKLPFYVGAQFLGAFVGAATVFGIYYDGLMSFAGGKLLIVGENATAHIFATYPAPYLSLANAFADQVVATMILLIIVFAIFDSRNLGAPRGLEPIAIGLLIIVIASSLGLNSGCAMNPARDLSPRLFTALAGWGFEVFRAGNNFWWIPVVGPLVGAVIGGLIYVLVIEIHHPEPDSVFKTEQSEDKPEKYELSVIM

[1] = substrate: O[Si](O)(O)O; assay: cells, lysate or membranes; conditions: B1 medium, 4-parameter logistic fit

Question: How did the “68Ge influx into oocytes, liquid scintillation counting” value (lsi1) turn out when [OH][Ge]([OH])([OH])[OH] [H4GeO4] was run?
Answer: significantly different relative to background, between channels (for a given substrate)

Question: How did the “effect on Si influx and water transport at 0.1 mM” value (AQP9) turn out when O=C(CCc1ccc(O)cc1)c1c(O)cc(O)cc1O [phloretin] was run?
Answer: Si transport by AQP9 is seen to be stimulated by the water transport inhibitor phloretin

B1: AQP9 (Homo sapiens) (protein)
chain: MQPEGAEKGKSFKQRLVLKSSLAKETLSEFLGTFILIVLGCGCVAQAILSRGRFGGVITINVGFSMAVAMAIYVAGGVSGGHINPAVSLAMCLFGRMKWFKLPFYVGAQFLGAFVGAATVFGIYYDGLMSFAGGKLLIVGENATAHIFATYPAPYLSLANAFADQVVATMILLIIVFAIFDSRNLGAPRGLEPIAIGLLIIVIASSLGLNSGCAMNPARDLSPRLFTALAGWGFEVFRAGNNFWWIPVVGPLVGAVIGGLIYVLVIEIHHPEPDSVFKTEQSEDKPEKYELSVIM
Question: With B1 as the molecule, how does the K0.5 ([1]; pH 7.4, 0-2 mM H4SiO4, 30 min) read?
Answer: 117 µM

B2: AQP10 (Homo sapiens) (protein)
chain: MVFTQAPAEIMGHLRIRSLLARQCLAEFLGVFVLMLLTQGAVAQAVTSGETKGNFFTMFLAGSLAVTIAIYVGGNVSGAHLNPAFSLAMCIVGRLPWVKLPIYILVQLLSAFCASGATYVLYHDALQNYTGGNLTVTGPKETASIFATYPAPYLSLNNGFLDQVLGTGMLIVGLLAILDRRNKGVPAGLEPVVVGMLILALGLSMGANCGIPLNPARDLGPRLFTYVAGWGPEVFSAGNGWWWVPVVAPLVGATVGTATYQLLVALHHPEGPEPAQDLVSAQHKASELETPASAQMLECKL
Question: Which K0.5 ([1]; pH 7.4, 0-2 mM H4SiO4, 60 min) does the source give for B2 here?
Answer: 470 µM

B3: AQP7 (Homo sapiens) (protein)
chain: MVQASGHRRSTRGSKMVSWSVIAKIQEILQRKMVREFLAEFMSTYVMMVFGLGSVAHMVLNKKYGSYLGVNLGFGFGVTMGVHVAGRISGAHMNAAVTFANCALGRVPWRKFPVYVLGQFLGSFLAAATIYSLFYTAILHFSGGQLMVTGPVATAGIFATYLPDHMTLWRGFLNEAWLTGMLQLCLFAITDQENNPALPGTEALVIGILVVIIGVSLGMNTGYAINPSRDLPPRIFTFIAGWGKQVFSNGENWWWVPVVAPLLGAYLGGIIYLVFIGSTIPREPLKLEDSVAYEDHGITVLPKMGSHEPTISPLTPVSVSPANRSSVHPAPPLHESMALEHF
Question: B3 was tested. Which K0.5 ([1]; pH 7.4, 0-2 mM H4SiO4 (value above tested range), 90 min) did it give?
Answer: 2300 µM
